One assay has as its target HLA-B*58:01. Kind of assay: IEDB peptide-MHC binding, purified MHC/direct/fluorescence; filed as Kd, often an IC50 or EC50 that approximates it; ≥ and ≤ were set here for values at or beyond the usual limits of such assays. Conditions: source organism: Homo sapiens.
The target of a further assay is HLA-A*69:01. The description is as above.
The next assay deals with HLA-B*15:01. The assay is described as above. The settings on record: source organism: Homo sapiens.
The next assay deals with HLA-A*11:01. The assay is described as above. The settings on record: source organism: Homo sapiens.
Assay [1] deals with HLA-A*01:01. The assay is described as above. The settings on record: source organism: Homo sapiens.
Another assay addresses HLA-A*03:01. The assay is described as above.
For a further assay, the target named is HLA-A*02:06. Description: IEDB peptide-MHC binding, purified MHC/competitive/radioactivity; filed as Kd, often an IC50 or EC50 that approximates it; ≥ and ≤ were set here for values at or beyond the usual limits of such assays.
The target in another assay is HLA-A*02:03. Described as above.
The target of the next assay is HLA-A*02:02. The assay is described as above.
The target in the next assay is HLA-A*30:02. The assay is described as above.
Assay [2] concerns the target HLA-A*02:01. Description: IEDB peptide-MHC binding, purified MHC/competitive/fluorescence; filed as Kd, often an IC50 or EC50 that approximates it; ≥ and ≤ were set here for values at or beyond the usual limits of such assays.
The target in another assay is HLA-A*26:01. Description: IEDB peptide-MHC binding, purified MHC/competitive/radioactivity; filed as Kd, often an IC50 or EC50 that approximates it; ≥ and ≤ were set here for values at or beyond the usual limits of such assays. Conditions: source organism: Dengue virus 4 Philippines/H241/1956.
In another assay the target is HLA-A*24:02. The assay is described as above. Conditions: source organism: Dengue virus 3 Martinique/1243/1999.
The next assay deals with HLA-A*31:01. Kind of assay: IEDB peptide-MHC binding, purified MHC/direct/fluorescence; filed as Kd, often an IC50 or EC50 that approximates it; ≥ and ≤ were set here for values at or beyond the usual limits of such assays. Conditions: source organism: Vibrio cholerae.
The target of assay [3] is HLA-A*02:01. Kind of assay: IEDB peptide-MHC binding, purified MHC/competitive/fluorescence; ≥ and ≤ were set here for values at or beyond the usual limits of such assays. Conditions: source organism: Zaire ebolavirus.
The target in assay [4] is HLA-A*02:01. Description: IEDB peptide-MHC binding, purified MHC/direct/fluorescence; filed as Kd, often an IC50 or EC50 that approximates it; ≥ and ≤ were set here for values at or beyond the usual limits of such assays. Conditions: source organism: Burkholderia mallei.
In another assay the target is HLA-B*40:01. Described as above. Conditions: source organism: Influenza A virus.
Assay [5] deals with HLA-A*01:01. Kind of assay: IEDB peptide-MHC binding, purified MHC/competitive/radioactivity; filed as Kd, often an IC50 or EC50 that approximates it; ≥ and ≤ were set here for values at or beyond the usual limits of such assays. The settings on record: source organism: Dengue virus 3 Singapore/8120/1995.
The mark [6] stands for this setting: source organism: Vaccinia virus WR.
[7] abbreviates: source organism: SARS coronavirus Tor2.

As usually defined, the Kd is the concentration at which binding is half-saturated. What is called IC50 is the concentration needed to halve the response being measured. Read a low IC50 as higher potency.

Take SSEQTFMYY: the Kd with HLA-B*58:01 worked out at 2480 nM; with HLA-A*69:01 (source organism: Homo sapiens) it was 8.34 µM; in the assay with HLA-B*15:01 it was 1420 nM; in the assay with HLA-A*11:01 it was 263 nM; with HLA-A*01:01 [1], 42.1 nM; in the assay with HLA-A*03:01 (source organism: Homo sapiens) it was 10.2 µM.

For the sequence STTGEWPLI, the Kd with HLA-A*02:06 (setting [6]) is 1240 nM; in the assay with HLA-A*02:03 (setting [6]), at least 44500 nM; in the assay with HLA-A*02:02 (setting [6]), at least 21.1 µM.

In the case of SVDEEGCGPL, the figures for the Kd with HLA-A*02:06 (setting [6]), in the assay with HLA-A*02:03 (setting [6]) and in the assay with HLA-A*02:02 (setting [6]) were 12700 nM, at least 38700 nM and 14.8 µM, respectively.

For TAIRAGYSI, the Kd with HLA-A*02:06 (setting [6]) turned out to be 7690 nM; with HLA-A*02:03 (setting [6]), 9200 nM; with HLA-A*02:02 (setting [6]), 14.5 µM.

Turning to TANIFRGSY, the Kd in the assay with HLA-A*30:02 (source organism: Dengue virus 4 Philippines/H241/1956) stood at 6.79 nM.

In the case of TICLKNEGV, the Kd amounted to 311 nM in the assay with HLA-A*02:06 (setting [6]), 120 nM with HLA-A*02:03 (setting [6]) and 0.494 µM in the assay with HLA-A*02:02 (setting [6]).

As to TPRKKNYHF, the Kd with HLA-A*02:01 [2] (source organism: Vibrio parahaemolyticus K5030) was at least 20000 nM.

With TTPLISFFGL, the Kd is 3360 nM with HLA-A*02:06 (setting [6]), 17600 nM in the assay with HLA-A*02:03 (setting [6]) and at least 5 µM with HLA-A*02:02 (setting [6]).

For the sequence TVIEELEKL, the Kd with HLA-A*26:01 was determined as 496 nM.

In the case of TWAQNIPTAI, the Kd with HLA-A*24:02 was 681 nM.

Regarding TYLHGIFDR, the figures for the Kd in the assay with HLA-A*03:01 (source organism: Vibrio cholerae) and with HLA-A*31:01 were at least 20 µM and 17.1 nM, respectively.

As to VATDVPSAT, the half-inhibitory concentration (IC50) with HLA-A*02:01 [3] is at least 157 µM.

For the sequence VIDRLPSET, the Kd with HLA-A*02:06 (setting [6]) came out at 3670 nM; with HLA-A*02:03 (setting [6]), 742 nM; with HLA-A*02:02 (setting [6]), 7.08 µM.

VKRLEELLP: the IC50 in the assay with HLA-A*02:01 [3] was at least 375 µM.

Consider VLKAMHDKKI, for which the Kd in the assay with HLA-A*02:06 (setting [6]) is at least 69800 nM; with HLA-A*02:03 (setting [6]), at least 33900 nM; with HLA-A*02:02 (setting [6]), at least 48.9 µM.

In the case of VLRGRHDAA, the Kd in the assay with HLA-A*02:01 [4] was 9.25 µM; in the assay with HLA-A*69:01 (source organism: Burkholderia mallei), at least 20 µM.

In turn, VMAPDKPSL displayed a Kd in the assay with HLA-A*69:01 (source organism: Yellow fever virus) of at least 20 µM.

As for VMHINSPFKV, the Kd is 393 nM with HLA-A*02:06 (setting [6]), 2.51 nM with HLA-A*02:03 (setting [6]) and 0.0603 µM with HLA-A*02:02 (setting [6]).

Turning to VMYASALVLL, the Kd with HLA-A*02:06 (setting [7]) worked out at 41.4 nM; with HLA-A*02:03 (setting [7]), 4.03 nM; with HLA-A*02:02 (setting [7]), 0.000251 µM.

With VQHPELTGL, the Kd with HLA-B*40:01 amounted to 136 nM.

As for VVQHENLKY, the Kd stood at 2400 nM with HLA-A*01:01 [5] and 266 nM with HLA-A*30:02 (source organism: Dengue virus 3 Singapore/8120/1995).

For WLVIGVAFL, the Kd came to 180 nM with HLA-A*02:06 (setting [7]), 0.942 nM in the assay with HLA-A*02:03 (setting [7]) and 0.00257 µM with HLA-A*02:02 (setting [7]).

Take YIESKAKQL: the results for the Kd with HLA-A*02:06 (setting [6]), in the assay with HLA-A*02:03 (setting [6]) and in the assay with HLA-A*02:02 (setting [6]) were 2990 nM, 439 nM and 0.144 µM, respectively.

In the case of YIMRVMANNV, the results for the Kd with HLA-A*02:06 (setting [6]), in the assay with HLA-A*02:03 (setting [6]) and with HLA-A*02:02 (setting [6]) were 14.2 nM, 1.96 nM and 0.023 µM, respectively.

For YLVQQESSFV, the Kd with HLA-A*02:06 (setting [7]) was found to be 386 nM; in the assay with HLA-A*02:03 (setting [7]), 17.5 nM; with HLA-A*02:02 (setting [7]) it was 12.7 µM.

On to YLVVVGAVGV, for which the Kd with HLA-A*02:01 [2] (source organism: unidentified) was determined as 10 nM.

For YVKNGTKGKL, the Kd is at least 28400 nM with HLA-A*02:06 (setting [6]), 7170 nM with HLA-A*02:03 (setting [6]) and 5.72 µM in the assay with HLA-A*02:02 (setting [6]).

The values above are taken from the Immune Epitope Database (IEDB).
